Data as given in article PMC5199234.

Key:
[1] = molecular target: T1, U1A N-terminal RRM (native) (UniProt P09012 1-102); test: SPR
[2] = molecular target: T1, U1A N-terminal RRM (native); test: SPR; remark: listed apart in the source

T1 sequence (P09012 1-102): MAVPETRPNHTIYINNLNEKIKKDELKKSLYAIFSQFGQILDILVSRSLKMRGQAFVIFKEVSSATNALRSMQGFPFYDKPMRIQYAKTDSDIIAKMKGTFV

Binder	Kd [1] [nM]	binding result [2]
AGCUUAUCCAUUGCACUCCGGAUGAGCU (structured_RNA) [U1hpII]	~0.04	
GGCAGAUCUGAGCCUGGGAGCUCUCUGCC (structured_RNA) [TAR]		no binding
